Measured values published in US20210155689A1 (SHANGHAI PHARMAEXPLORER, published 2021).

What was measured:
[1] = molecular target: T1, monkey LAG-3 on cells (HEK293-cLAG-3 stable cell line) (monkey, UniProt P18627 24-525 (human entry)); experiment: FACS, HEK293-cLAG-3, antibody 8.000 nM
T1 construct: Full-length monkey (Chinese monkey) LAG-3 gene expressed on HEK293 cells
T1 chain: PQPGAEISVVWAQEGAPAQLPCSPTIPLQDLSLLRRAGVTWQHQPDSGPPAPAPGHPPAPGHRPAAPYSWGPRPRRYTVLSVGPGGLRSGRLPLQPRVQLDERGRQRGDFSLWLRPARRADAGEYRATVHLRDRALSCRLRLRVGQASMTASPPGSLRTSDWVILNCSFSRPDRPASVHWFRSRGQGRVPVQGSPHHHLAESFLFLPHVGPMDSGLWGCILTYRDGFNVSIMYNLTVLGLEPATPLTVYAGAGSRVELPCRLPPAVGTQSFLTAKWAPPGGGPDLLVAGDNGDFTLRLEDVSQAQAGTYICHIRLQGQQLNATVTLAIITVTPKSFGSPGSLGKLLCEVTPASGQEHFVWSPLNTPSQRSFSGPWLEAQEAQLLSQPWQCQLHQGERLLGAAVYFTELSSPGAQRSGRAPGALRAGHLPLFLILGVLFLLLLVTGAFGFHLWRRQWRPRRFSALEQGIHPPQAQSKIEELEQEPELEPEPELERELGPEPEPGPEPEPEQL
Description: (§1) The pIRES plasmid with the monkey-derived full-length gene was transfected into the HEK293 cell line to construct a HEK293 stable cell line containing monkey LAG-3 (herein referred to as HEK293-cLAG-3 stable cell line). The HEK293-hLAG-3 stable cell line and HEK293-cLAG-3 stable cell line were expanded in a T-75 cell culture flask to a 90% confluence. The medium was aspirated, and the cells were washed with HBSS (Hanks' Balanced Salt Solution) 1-2 times, then treated with a enzyme-free cell dissociation fluid (Versene solution: Life technology) and the cells were collected. The cells were washed with HBSS buffer for 1-2 times. After counted, the cells were diluted with HBSS to 1-2×10⁶ cells per ml, added with 1% goat serum blocking solution, incubated on ice for 20-30 minutes, and then washed with HBSS for 2 times by centrifugation. The collected cells were suspended in the FACS buffer (HBSS+1% BSA) to 2×10⁶ cells/ml, added as 100 microliters per well to a 96-well FACS reaction plate, added with 100 microliters per well of the antibody sample to be tested, incubated on ice for 1-2 hours. The plate was washed twice with the FACS buffer by centrifugation, added with 100 microliters of fluorescent (Alexa 488)-labeled secondary antibodies per well, and incubated on ice for 0.5-1.0 hours. The plate was washed 2-3 times with FACS buffer by centrifugation, added with 100 μl fixative solution (4% Paraformaldehyde) per well to suspend the cells. 5-10 minutes later, it was washed 1-2 times with FACS buffer by centrifugation. The cells were suspended with 100 microliters of FACS buffer, FACS (FACSCalibur, BD) was used for detection and the results were analyzed.

[2] = molecular target: T1, monkey LAG-3 on cells (HEK293-cLAG-3 …); experiment: FACS, HEK293-cLAG-3, antibody 0.013 nM
Description: as §1

B1: 405B8H3 mouse-human chimeric antibody (antibody, V domains shown)
VH: QVQLQQSGAELVRPGASVTLSCKASGYTFTDYEMHWVKQTPVHGLEWIGATDPETGNSAYNQKFKGKAIMTADKSSSTAYMELRSLTSEDSAVYYCISTGWNDWGQGTSLTVSS
VL: DIKMTQSPSSMYASLGERVTITCKASQDINSYLSWFQQKPGKSPKTLIYRADRLLDGVPSRFSGSGSGQDYSLTISSLEYGDMGIYYCLQYDEFPYTFGGGTKLEIK
notes: also called mAb103-405B8H3
[1]
  Mean fluorescence intensity: 69.3
[2]
  Mean fluorescence intensity: 3.52

B2: 409D4E10 mouse-human chimeric antibody (antibody, V domains shown)
VH: QVQLQQSGAELVRPGASVTLSCKASGNTFTDYEMHWVKQTPVHGLEWIGATDPETDNTAYNQKFKGKAILTTDKSSSTAYMELRSLTSEDSAVYYCITSGWNDWGQGTSLTVSS
VL: DIKMTQSPSSMYASLGERVTITCKASQDINSYLSWFQQKPGKSPKTLIYRANRLLDGVPSRFSGSGSGQDYSLTISSLEYEDMGIYYCLQYNEFPYTFGGGTKLEIK
notes: also called mAb112-409D4E10
[1]
  Mean fluorescence intensity: 61.5
[2]
  Mean fluorescence intensity: 3.36

B3: 409B11E12 mouse-human chimeric antibody (antibody, V domains shown)
VH: QVQLQQSGAELVRPGASVTLSCKASGYTFTDYEMHWVKQTTVHGLEWIGATDPETSYSAYNQKFKGKAILTADKSSSTAYMELRSLTSEDSAVYYCIATGWNDWGQGTSLTVSS
VL: DLKMTQSPSSMYASLGERVTITCKASQDINSYLSWFQQKPGKSPKTLIYRANRLLDGVPSRFSGSGSGQDYSLTISSLEYEDMGIYYCLQYDEFPYTFGGGTKLEIK
notes: also called mAb104-409B11E12
[1]
  Mean fluorescence intensity: 73.1
[2]
  Mean fluorescence intensity: 3.39
